Our source for the normalised SPOT signal, Boehringer light units (BLU); mean over the file's lines of this peptide values is article PMC314469, “Protein Interaction Networks by Proteome Peptide Scanning” (PLoS Biology, 2004).

Holding throughout (assay): SPOT array
Assay [1] deals with T1, Boi2 SH3 (BOI2_YEAST), P39969.
T1 chain: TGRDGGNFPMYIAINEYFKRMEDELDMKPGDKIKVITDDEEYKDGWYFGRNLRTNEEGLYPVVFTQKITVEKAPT

Assay [2] has as its target T2, Boi1 SH3 (BOI1_YEAST), P38041.
T2 chain: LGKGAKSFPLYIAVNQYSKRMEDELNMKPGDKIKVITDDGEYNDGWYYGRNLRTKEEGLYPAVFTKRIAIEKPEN

Assay [3] addresses T3, Yfr024 SH3 (LSB3_YEAST), P43603.
T3 chain: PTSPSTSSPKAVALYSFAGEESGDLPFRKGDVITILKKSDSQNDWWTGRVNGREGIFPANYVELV

Assay [4] has as its target T4, Yhr016c SH3 (YSC84_YEAST), P32793.
T4 chain: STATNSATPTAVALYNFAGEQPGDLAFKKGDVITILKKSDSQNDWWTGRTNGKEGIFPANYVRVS

Assay [5] deals with T5, Rvs167 SH3 (RV167_YEAST), P39743.
T5 chain: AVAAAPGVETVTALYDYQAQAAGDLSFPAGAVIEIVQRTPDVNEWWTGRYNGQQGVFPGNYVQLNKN

On to SDLPSSPIKAPNVE [YHR164C 232-245], for which the normalised SPOT signal, Boehringer light units (BLU); mean over the file's lines of this peptide worked out at 59.9 in assay [1]; 41.3 in assay [2]; 8.4 in assay [3]; 50.7 in assay [4]; 27.8 in assay [5].
As to SALPILPKREVVTR [YGL028C 19-32], the normalised SPOT signal, Boehringer light units (BLU); mean over the file's lines of this peptide in assay [1] was found to be 33.1; in assay [2], 72.3; in assay [3], 49200; in assay [4], 43500; in assay [5], 20100.
For the molecule SASPYRPQRLPAKF [YDL033C 13-26], the normalised SPOT signal, Boehringer light units (BLU); mean over the file's lines of this peptide in assay [1] stood at 105; in assay [2], 514; in assay [3], 2420; in assay [4], 543; in assay [5] it was 67.3.
On to RTEPSTPSRPVPPD [YJL095W 1078-1091], for which the normalised SPOT signal, Boehringer light units (BLU); mean over the file's lines of this peptide in assay [1] came to 8.2; in assay [2], 54.7; in assay [3] it was 7000; in assay [4], 435; in assay [5], 15.7.
Turning to SENPLLPEKLSQSK [YNR016C 154-167], the normalised SPOT signal, Boehringer light units (BLU); mean over the file's lines of this peptide in assay [1] came out at 38.8; in assay [2], 54.4; in assay [3], 196; in assay [4], 158; in assay [5], 24.9.
Turning to SEEPTSPTRQVNPE [YER032W 443-456], the normalised SPOT signal, Boehringer light units (BLU); mean over the file's lines of this peptide is 26.6 in assay [1]; 32.5 in assay [2]; 52.2 in assay [3]; 303 in assay [4]; 40.3 in assay [5].
Turning to SDKPLTPTKTSSTL [YER143W 341-354], the normalised SPOT signal, Boehringer light units (BLU); mean over the file's lines of this peptide in assay [1] turned out to be 53.6; in assay [2] it was 110; in assay [3], 150; in assay [4], 377; in assay [5], 100.
The like results for SASPTLPTRRSRRL [YDL156W 62-75] were, in that order, 10000, 46400, 49400, 97900 and 77800.
Turning to SAFPQSPIRAYGST [YGL197W 1382-1395], the normalised SPOT signal, Boehringer light units (BLU); mean over the file's lines of this peptide in assay [1] is 37.5; in assay [2] it was 238; in assay [3] it was 186; in assay [4] it was 156; in assay [5], 48.9.
As to RRKPHSPNKKKPKE [YDR223W 12-25], the normalised SPOT signal, Boehringer light units (BLU); mean over the file's lines of this peptide in assay [1] is 198; in assay [2], 148; in assay [3] it was 693; in assay [4], 113; in assay [5] it was 38.5.
On the same counts, the results for RSIPRGPDKNSLRV [YOR322C 268-281] are 76.1, 230, 384, 144 and 296.
For the molecule RRGPGRPRKDASTS [YDR310C 204-217], the normalised SPOT signal, Boehringer light units (BLU); mean over the file's lines of this peptide in assay [1] was determined as 53.5; in assay [2] it was 323; in assay [3], 889; in assay [4], 57.2; in assay [5] it was 212.
On to SELPTRPSKSKTYN [YNL139C 1447-1460], for which the normalised SPOT signal, Boehringer light units (BLU); mean over the file's lines of this peptide was 39.8 in assay [1]; 138 in assay [2]; 4580 in assay [3]; 375 in assay [4]; 20.6 in assay [5].
As to SAIPITPTKRIRRN [YJL194W 2-15], the normalised SPOT signal, Boehringer light units (BLU); mean over the file's lines of this peptide in assay [1] was determined as 141; in assay [2], 873; in assay [3], 2690; in assay [4], 31.6; in assay [5] it was 73.
With RYKPTPPLKKRYDY [YPL074W 335-348], the normalised SPOT signal, Boehringer light units (BLU); mean over the file's lines of this peptide came out at 83.4 in assay [1]; 25.5 in assay [2]; 2110 in assay [3]; 148 in assay [4]; 50.9 in assay [5].
As for SELPKSPYRQKPTQ [YHR184W 124-137], the normalised SPOT signal, Boehringer light units (BLU); mean over the file's lines of this peptide in assay [1] came out at 37.1; in assay [2], 1670; in assay [3], 440; in assay [4], 0; in assay [5], 15.8.
On to RVHPEPPNKPGITT [YDR330W 407-420], for which the normalised SPOT signal, Boehringer light units (BLU); mean over the file's lines of this peptide in assay [1] was determined as 76.2; in assay [2] it was 122; in assay [3], 271; in assay [4], 250; in assay [5] it was 55.3.
For RVLPSKPKKSVKEN [YLR183C 354-367], the normalised SPOT signal, Boehringer light units (BLU); mean over the file's lines of this peptide in assay [1] came out at 17.8; in assay [2], 156; in assay [3], 2620; in assay [4], 196; in assay [5], 42.3.
SDTPASPSKVQSFD [YMR182C 187-200]: the normalised SPOT signal, Boehringer light units (BLU); mean over the file's lines of this peptide in assay [1] was found to be 77.6; in assay [2] it was 94.4; in assay [3] it was 94.3; in assay [4], 46.4; in assay [5] it was 51.8.
